Results published in patent US20180362616A1, “VARIANTS OF AMYLOID beta-PROTEIN PRECURSOR INHIBITOR DOMAIN” (THE NATIONAL INSTITUTE FOR BIOTECHNOLOGY IN THE NEGEV LTD., priority 2015, published 2018).
Entries after “also recorded” stand apart in the source; their conditions may differ. Read-outs that look alike come from different tables or passages of the source.

Assays:
[1] = target: T1, mesotrypsin (Homo sapiens, UniProt P35030); conditions: literature (Knecht et al. 2007; Radisky et al. 2003); cited from earlier work
T1 sequence (P35030 81-304 limits assumed): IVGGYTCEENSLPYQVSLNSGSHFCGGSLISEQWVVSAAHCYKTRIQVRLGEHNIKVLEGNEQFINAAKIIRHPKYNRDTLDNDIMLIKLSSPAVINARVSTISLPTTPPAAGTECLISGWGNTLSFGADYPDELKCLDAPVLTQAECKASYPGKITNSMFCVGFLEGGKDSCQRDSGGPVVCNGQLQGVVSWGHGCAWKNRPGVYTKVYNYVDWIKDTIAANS

[2] = target: T1, mesotrypsin; assay: Mesotrypsin inhibition, cleavage of Z-GPR-pNA; assay type: biochemical; design: made in house
[3] = target: T1, mesotrypsin; assay: Hydrolysis of APPI variants by mesotrypsin, HPLC time course; assay type: biochemical; design: made in house
[4] = target: T2, hK6 (Homo sapiens, UniProt Q92876); assay: Surface plasmon resonance, APPI on nickel chip, hK6 analyte; assay type: binding; conditions: SPR
Experimental: APPIs were immobilized to a SPR nickel chip via the proteins His tag, and hK6 protein served as the analyte. The experiment was conducted at 25° C. APPI concentrations were 0.6125 nM, 1.25 nM, 2.5 nM, 5 nM, and 10 nM.
To this end, APPIs were mounted on a surface Plasmon resonance (SPR) nickel chip by their His tag, and hK6 molecules served as the analyte.

[5] = tested on: AGS cells; assay: XTT proliferation assay; assay type: cell-based; conditions: 100 nM, 1 μM, 10 μM, 48 hours
Experimental: (§1) The effect of an APPI variant (SEQ ID NO: 13) on proliferation of gastric cancer cells was evaluated by XTT assay. AGS, HCT-116 and SW-480 cells were plated into 96-well plates in 9600 cells/well in duplicate, and allowed to adhere for 4 hours. Each well was supplemented with 100 nM, 1 μM, or 10 μM […] (SEQ ID NO: 13) or a vehicle (50 mM Tris-HCl, 100 mM NaCl, Ph 7.3), and cells were incubated for 48 hours. Proliferation was measured by XTT following the manufacturer instructions (Biological Industries, Ill.).

[6] = tested on: SW-480 cells; assay: XTT proliferation assay; assay type: cell-based; conditions: 100 nM, 1 μM, 10 μM, 48 hours
Experimental: as §1

[7] = tested on: HCT-116 cells; assay: XTT proliferation assay; assay type: cell-based; conditions: 100 nM, 1 μM, 10 μM, 48 hours
Experimental: as §1

[8] = target: T2, hK6; assay: YSD binding of 50 nM hK6 in presence of active-site small molecule
Experimental: Next, different concentrations of the polypeptides having SEQ ID Nos: 8, 13, and 14 were tested for their ability to bind 50 nM hK6 in the presence of a small molecule which target and home the serine residue in the active pocket of hK6.

[9] = tested on: AGS gastric cancer cells; assay: Matrigel ThinCerts invasion assay; assay type: cell-based
Experimental: The effects of […] (SEQ ID NO: 13) on the invasive behavior of AGS gastric cancer cells was examined. For invasion assays AGS cells were plated in the top chamber of a Matrigel coated […] (Greiner Bio-One, Germany), with an 8 μm pored membrane in 160 μl serum-free Ham's F-12 medium, in triplicate. 1 uM-10 uM of APPI (SEQ ID NO: 13) or a vehicle (50 mM Tris-HCl, 100 mM NaCl, Ph 7.3) in 40 μl were added to each insert. Next, the inserts were placed into the bottom chamber wells of a 24-well plate containing Ham's F-12 with 10% FBS as a chemo-attractant. After 48 hours of incubation, cells remaining on the inserts' top layers were removed by cotton swab scrubbing; Cells on the lower surface of the membrane were fixed in 100%/methanol and stained with Romanowski stain solutions. The cell numbers in 10 random fields (×20) were counted for each chamber and the average value was calculated.

In the case of “bovine pancreatic trypsin inhibitor [BPTI]”, the “proteolytic stability toward mesotrypsin” value [1] is given as “the more stable of the two”.
For “APPIT11C/M17G/I18F/F34C: APPI variant, EVCSEQAECGPCRAGFSRWYFDVTEGKCAPFCYGGCGGNRNNFDTEEYCMAVCGSAI”, the Ki ([2]; Table 4, read-out: Ki) was 149 nM, the Kcat ([3]; Table 4) was 0.00521 s⁻¹ and the turnover time ([3]; Table 4) was 192.21 s. The “Turnover time (fold)” value ([3]; proteolytic stability relative to APPI-WT) was “around 2 fold”.
In the case of “SEQ ID NO: 13: APPI variant, EVCSEQAETGPCRALFFRWYFDVTEGKCAPFVYGGCGGNRNNFDTEEYCMAVCGSAI”, the Kd ([4]; 25° C.) is reported as 0.351 nM, the “improvement in binding to hK6” value ([4]; compared to APPI WT) is reported as 22.5 folds and the Ki ([2]; Example 10, read-out: Ki (mesotrypsin activity)) is reported as 5.38 nM. For the same substance, the “proliferation (XTT)” value [5] was “did not inhibit proliferation”, the “proliferation (XTT)” value [6] was “did not inhibit proliferation” and the “proliferation (XTT)” value [7] was “did not inhibit proliferation”. For the same substance, the “binding to hK6 compared with SEQ ID NO: 8” value ([8]; 50 nM hK6, yeast display) was “higher binding”, the “binding to hK6 in presence of small molecule” value ([8]; high concentrations of small molecule targeting active-site Ser of hK6) was “diminished” and the “invasive cells per field” value ([9]; 10 μM APPI (b288 prints 10M), 48 hours) was 1.46±0.48 cells/field. For the same substance, the invasion capacity reduced ([9]; 10 μM APPI (b288 prints 10M), 48 hours, vs vehicle) was 77% and the transmembrane invasion ([9]; compared with vehicle) was “significantly lower transmembrane invasion capacity; also recorded: inhibits cell invasion”.
